Assay results published in patent US20020037533A1 (University of California, published 2002).

Target: T1, myc-tagged PSD95 (UniProt P31016 1-724)
T1 construct: also called PSD-95 myc; PSD-95-myc; not shown: myc tag
Test: co-immunoprecipitation from HEK 293T cells stably expressing Flag-tagged GPR10, transfected with myc-tagged PSD95
Protocol: Forty-eight hours after transfection, cells were washed once in PBS and lysed with IP buffer (1% triton X-100, 25 mM Tris, pH 7.4, 50 mM NaCl, 5 mM EDTA, 5 mM EGTA, 0.1 mM phenylmethylsulphonyl fluoride (PMSF), aprotinin, leupeptin, and bacitracin). Immunoprecipitation was performed using 2 μg anti-Flag M2 antibody (Sigma) or 1 μg anti-myc antibody (Roche) followed by 25 μl protein G-agarose (Sigma). Immunoprecipitation was carried out overnight at 4° C. Immunoprecipitated proteins were resolved on SDS-PAGE, transferred to PVDF membrane. Western blotting was performed to detect GRIP using anti-GRIP antibody (1:1000). ABP-myc, PSD-95-myc, and PICK1-myc were detected using the monoclonal anti-myc antibody (1:500, Clontech).
To determine whether GPR10 interacts specifically with AMPA receptor interacting proteins, myc-tagged ABP and myc-tagged PSD95 were transfected into cell lines expressing wild type and mutant Flag-tagged GPR10.

T1 sequence (P31016 whole entry): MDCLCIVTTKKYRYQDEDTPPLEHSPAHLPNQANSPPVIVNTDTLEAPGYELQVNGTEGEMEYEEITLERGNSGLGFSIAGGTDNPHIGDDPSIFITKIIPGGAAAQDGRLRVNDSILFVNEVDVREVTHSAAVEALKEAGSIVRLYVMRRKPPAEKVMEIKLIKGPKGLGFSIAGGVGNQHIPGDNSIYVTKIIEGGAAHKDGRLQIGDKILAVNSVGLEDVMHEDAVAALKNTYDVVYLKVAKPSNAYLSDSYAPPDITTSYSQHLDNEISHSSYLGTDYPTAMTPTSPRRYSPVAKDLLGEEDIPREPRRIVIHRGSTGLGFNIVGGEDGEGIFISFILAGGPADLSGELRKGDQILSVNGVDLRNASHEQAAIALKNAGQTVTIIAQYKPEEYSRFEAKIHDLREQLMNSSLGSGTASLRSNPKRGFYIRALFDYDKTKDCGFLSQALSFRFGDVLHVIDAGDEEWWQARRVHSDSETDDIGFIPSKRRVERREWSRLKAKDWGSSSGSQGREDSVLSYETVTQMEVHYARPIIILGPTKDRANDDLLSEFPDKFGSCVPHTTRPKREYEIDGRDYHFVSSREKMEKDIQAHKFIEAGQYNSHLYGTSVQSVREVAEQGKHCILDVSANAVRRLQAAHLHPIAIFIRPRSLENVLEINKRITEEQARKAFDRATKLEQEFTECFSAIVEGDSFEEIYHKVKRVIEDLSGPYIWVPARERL

binding result: no binding
B1: Flag-tagged GPR10 (wild type) (receptor, UniProt P49683 1-370, looked up)
chain: MASSTTRGPRVSDLFSGLPPAVTTPANQSAEASAGNGSVAGADAPAVTPFQSLQLVHQLKGLIVLLYSVVVVVGLVGNCLLVLVIARVRRLHNVTNFLIGNLALSDVLMCTACVPLTLAYAFEPRGWVFGGGLCHLVFFLQPVTVYVSVFTLTTIAVDRYVVLVHPLRRRISLRLSAYAVLAIWALSAVLALPAAVHTYHVELKPHDVRLCEEFWGSQERQRQLYAWGLLLVTYLLPLLVILLSYVRVSVKLRNRVVPGCVTQSQADWDRARRRRTFCLLVVIVVVFAVCWLPLHVFNLLRDLDPHAIDPYAFGLVQLLCHWLAMSSACYNPFIYAWLHDSFREELRKLLVAWPRKIAPHGQNMTVSVVI
notes: whole, on cells; Expressed in HEK 293T or COS7 cells; immunoprecipitated from Triton lysates with anti-Flag M2; also called Flag GPR10 WT; PrRP receptor; not shown: Flag tag
